In article PMC10499821:

Target: Nsp5 (SARS-CoV-2) (UniProt P0DTD1)
Test: fluorescence polarisation

Binder	Kd [µM]
TVKFHARTGMIESNR [DLG3_(577–592)]	7
GASSRLQASLSSSDV [SHROOM2_(403–417)]	280
